Patent publication US20260306676A1, “FLUORESCEIN-LABELED NERVE TARGETING PEPTIDE FORMULATIONS AND RELATED METHODS” (ALUME BIOSCIENCES, INC., priority 2023, published 2026)
Values after ≈ are worked out from the molar mass of the structure shown. Counter-ions that a name gives are not always drawn.

How the values were obtained:
[1] = pH-moderated solubility (NaOH titration) of ALM-488 salts; assay type: physicochemical; conditions: for initial pH of mixture: before NaOH, acetate mixture ~50 mg/mL
Description: A titration experiment was carried out using the ALM-488, HCl salt to determine if a nominal 40-50 mg/mL or higher solubility could be retained as pH is increased by gradual addition of NaOH. […] At solution pH values <4 the peptide remained in solution at concentrations >50 mg/mL. Above pH 4, the peptide precipitated. […] Dilution of the mixture due to base addition decreased the peptide concentration to ~47 mg/mL at pH values >7.
FIG. 8 is an overlay of the titration curves for ALM-488 hydrochloride and the ALM-488 acetate.

[2] = Influence of pH on solubility and stability of ALM-488; assay type: physicochemical
Description: To understand pH-stability relationships, solutions of the ALM-488, HCl salt were prepared at ~1 mg/mL in 50 mM sodium citrate (pH 4-6) or sodium phosphate buffer (pH 7-8) solutions. […] All mixtures were filtered through a 0.45 μm PVDF syringe filter to remove undissolved solid, prior to storage. The filtered solution pH values were measured, and the samples were analyzed by HPLC using the HPLC method conditions of Table 3. Table lists the measured concentrations of ALM-488 (after filtration) as well as the measured solution pH values.
The solutions were then transferred into HPLC sample vials and were stored at 5° C., room temperature (22-23° C.) and 40° C.
Table 5 below summarizes the measured concentrations of intact ALM-488 peptide quantified relative to a standard solution, as well as the area % of the main peptide peaks as measured using the HPLC analysis method of Table 3. FIG. 9 is an overlay of representative chromatograms of the ALM-488 solutions at different solution pH values stored at 40° C. for 24 h. […] At higher pH values, the impurity at RRT ~0.96 appeared to grow during storage.

[3] = Influence of storage temperature on stability of ALM-488 solution (HPLC); assay type: physicochemical
Description: To evaluate whether the ALM-488, HCl salt can be supplied in the form of a concentrated frozen solution, 50 mg/mL solutions of the HCl salt were prepared in water and evaluated for storage stability at different temperatures. The solutions having pH of 1.87 were prepared in sterile water for injection, and these solutions were stored at different storage temperatures (−20° C., 5° C. and 40° C.) and were analyzed using the HPLC method of Table 3 at different time periods.

[4] = Drug product assay of lyophiles by HPLC; assay type: physicochemical; conditions: Pre-Lyo., starting peptide
Description: The content and purity of the ALM-488 peptide in the lyophilized product vials for Samples 10-1, 10-2 and 10-3 were evaluated using the HPLC method conditions of Table 3. […] The resulting solution was then transferred to a 200 mL volumetric flask. Each vial was rinsed well with water, and the rinses were transferred to the flask prior to volume make-up to 200 mL with water. The resulting solutions (~0.25 mg/mL of ALM488) were individually injected into the HPLC system and were analyzed as described above. The lyophilization process appeared to cause a small increase in the levels of some impurities.

[5] = Effect of organic amine compounds on solubility of ALM-488 (pH titration)
Description: To assess formulations that could be used to prepare ~50 mg/vial samples of ALM-488, and samples having an ALM-488 concentration of ~50 mg/mL, formulations having different organic amine compounds were studied. Each of these samples included (i) ALM-488 hydrochloride, (ii) a suitable base appropriate for a freeze-dried formulation (to adjust solution pH to optimal 7-8, as described in Examples 4 and 5), and (iii) at least one organic amine compound functioning as a pH-adjusting agent, bulking agent and/or a tonicity-adjusting agent. […] 55-60 mg/mL solutions of ALM-488 (pH 1.8-1.9) were titrated by gradual addition of 750 mM arginine, 1 M Tris, or 1 M meglumine.

[6] = Thermogravimetric analysis of purified ALM-488 chloride salt; assay type: physicochemical
[7] = Karl Fisher water content of purified ALM-488 chloride salt; assay type: physicochemical; conditions: oven 100° C.
Description: Karl Fisher titration was carried out on the chloride salt of ALM-488 using a Mettler Toledo Stromboli automatic oven sample changer. The instrument was standardized with a Hydranal® Water standard (Fluka). The solid ALM-488 sample was weighed into a sample vial and was heated to 100° C. in the oven, and the water vaporized from the sample was transferred to the titrator cell by purge gas.

[8] = After 24 hours at 40° C., Citrate buffer 50 mM, pH 3.95
[9] = After 24 hours at 40° C., Citrate buffer 50 mM, pH 4.97
[10] = After 24 hours at 40° C., Citrate buffer 50 mM, pH 6.01
[11] = After 24 hours at 40° C., Phos. buffer 50 mM, pH 7.04
[12] = After 24 hours at 40° C., Phos. buffer 50 mM, pH 8.18
[13] = After 24 hours at 40° C., Water
[14] = Initial, Citrate buffer 50 mM, pH 3.95
[15] = Initial, Citrate buffer 50 mM, pH 4.97
[16] = Initial, Phos. buffer 50 mM, pH 7.04
[17] = Initial, Phos. buffer 50 mM, pH 8.18
[18] = 50 mg/mL in sterile water, 7 Days (5° C.)
[19] = 50 mg/mL in sterile water, 7 Days (40° C.)
[20] = 50 mg/mL in sterile water, 7 Days (−20° C.)
[21] = 50 mg/mL in sterile water, Initial (RT)

## CC(C)[C@H](NC(=O)[C@H](Cc1ccc(O)cc1)NCCCCC(=O)[C@H](Cc1ccc(O)cc1)NC(=O)[C@@H]1CCCN1C(=O)[C@H](CCC(=O)O)NC(=O)[C@H](CCC(=O)O)NC(=O)[C@H](Cc1c[nH]c2ccccc12)NC(=O)[C@@H]1CCCN1C(=O)[C@@H](NC(=O)[C@H](CCC(N)=O)NC(=O)c1ccc2c(c1)C(=O)OC21c2ccc(O)cc2Oc2cc(O)ccc21)C(C)C)C(=O)N[C@H](C(=O)N[C@@H](CCCCN)C(=O)N[C@@H](CCCCN)C(=O)N[C@@H](CO)C(=O)N[C@@H](CO)C(=O)NCC(=O)NCC(N)=O)C(C)C [ALM-488 acetate]
[1]
  initial pH of mixture: ~ 4
[1]; compared with hydrochloride salt
  amount of NaOH required to adjust pH to ~7: lower than that for the hydrochloride salt
[1]; initial pH ~4, ~50 mg/mL
  dissolution / appearance: did not completely dissolve and formed an opaque orange dispersion
[1]; pH >7, NaOH added
  appearance: clear solution

## CC(C)[C@H](NC(=O)[C@H](Cc1ccc(O)cc1)NCCCCC(=O)[C@H](Cc1ccc(O)cc1)NC(=O)[C@@H]1CCCN1C(=O)[C@H](CCC(=O)O)NC(=O)[C@H](CCC(=O)O)NC(=O)[C@H](Cc1c[nH]c2ccccc12)NC(=O)[C@@H]1CCCN1C(=O)[C@@H](NC(=O)[C@H](CCC(N)=O)NC(=O)c1ccc2c(c1)C(=O)OC21c2ccc(O)cc2Oc2cc(O)ccc21)C(C)C)C(=O)N[C@H](C(=O)N[C@@H](CCCCN)C(=O)N[C@@H](CCCCN)C(=O)N[C@@H](CO)C(=O)N[C@@H](CO)C(=O)NCC(=O)NCC(N)=O)C(C)C [ALM-488, Bevonescein]
[2]; 50 mm citrate buffer, aqueous buffer, citrate buffers (pH 4-6), read-out: solubility
  solubility: < 1000 µg/mL
[2]; [8]
  ALM488 concentration: 0.87 mg/mL
  HPLC purity, area %: 99.5%
[2]; [9]
  ALM488 concentration: 0.18 mg/mL
  HPLC purity, area %: 99.8%
[2]; [10]
  ALM488 concentration: 0.60 mg/mL
  HPLC purity, area %: 99.8%
[2]; [11]
  ALM488 concentration: 0.95 mg/mL
  HPLC purity, area %: 99.8%
[2]; [12]
  ALM488 concentration: 0.96 mg/mL
  HPLC purity, area %: 99.5%
[2]; [13]
  ALM488 concentration: 0.86 mg/mL
  HPLC purity, area %: 99.3%
[2]; Citrate buffer 50 mM (pH 3.95)
  Measured solution pH: 3.85
[2]; Citrate buffer 50 mM (pH 3.95), read-out: Measured concentration in filtered solution
  solubility: 830 µg/mL (≈ 351 µM)
[2]; Citrate buffer 50 mM (pH 4.97)
  Measured solution pH: 4.89
[2]; Citrate buffer 50 mM (pH 4.97), read-out: Measured concentration in filtered solution
  solubility: 180 µg/mL (≈ 76.1 µM)
[2]; Citrate buffer 50 mM (pH 6.01)
  Measured solution pH: 5.91
[2]; Citrate buffer 50 mM (pH 6.01), read-out: Measured concentration in filtered solution
  solubility: 610 µg/mL (≈ 258 µM)
[2]; [14]
  ALM488 concentration: 0.83 mg/mL
  HPLC purity, area %: 99.3%
[2]; [15]
  ALM488 concentration: 0.18 mg/mL
  HPLC purity, area %: 99.8%
[2]; Initial, Citrate buffer 50 mM, pH 6.01
  ALM488 concentration: 0.61 mg/mL
[2]; [16]
  ALM488 concentration: 0.94 mg/mL
  HPLC purity, area %: 99.7%
[2]; [17]
  ALM488 concentration: 0.95 mg/mL
  HPLC purity, area %: 99.7%
[2]; Initial, Water
  ALM488 concentration: 0.86 mg/mL
  HPLC purity, area %: 99.8%
[2]; Phos. buffer 50 mM (pH 7.04)
  Measured solution pH: 6.94
[2]; Phos. buffer 50 mM (pH 8.18)
  Measured solution pH: 7.90
[2]; Water
  Measured solution pH: 3.46
[2]; aqueous buffer, pH 5, citrate buffer, read-out: solubility near isoelectric pH
  solubility: ~200 µg/mL (≈ 84.5 µM)
[2]; neutral pH values
  solution stability: adequate solution stability
[2]; phosphate buffer 50 mm, Phos. buffer 50 mM (pH 7.04), read-out: Measured concentration in filtered solution
  solubility: 940 µg/mL (≈ 397 µM)
[2]; phosphate buffer 50 mm, Phos. buffer 50 mM (pH 8.18), read-out: Measured concentration in filtered solution
  solubility: 950 µg/mL (≈ 401 µM)
[2]; water (pH 3.46), 40° C. for 24 h
  impurity at RRT ~1.4: ~ 0.5 area %
[2]; water (pH 3.5) and phosphate buffer (pH 7-8), ~1 mg/mL
  dissolution: rapid and complete
[2]; water, read-out: Measured concentration in filtered solution
  solubility: 860 µg/mL (≈ 363 µM)
[3]; [18]
  ALM-488 main peak: 99.61 AREA %
  impurity RRT~0.73: 0.07 AREA %
  impurity RRT~0.97: 0.15 AREA %
  impurity RRT~1.06: 0.14 AREA %
  impurity RRT~1.38: 0.05 AREA %
[3]; [19]
  ALM-488 main peak: 97.96 AREA %
  impurity RRT~0.73: 0.05 AREA %
  impurity RRT~0.93: 0.09 AREA %
  impurity RRT~0.97: 0.07 AREA %
  impurity RRT~1.06: 1.43 AREA %
  impurity RRT~1.18: 0.07 AREA %
  impurity RRT~1.38: 0.27 AREA %
[3]; [20]
  ALM-488 main peak: 99.56 AREA %
  impurity RRT~0.73: 0.07 AREA %
  impurity RRT~0.94: 0.03 AREA %
  impurity RRT~0.97: 0.16 AREA %
  impurity RRT~1.06: 0.15 AREA %
  impurity RRT~1.38: 0.04 AREA %
[3]; [21]
  ALM-488 main peak: 99.64 AREA %
  impurity RRT~0.94: 0.09 AREA %
  impurity RRT~0.97: 0.23 AREA %
  impurity RRT~1.06: 0.09 AREA %
[4]
  ALM-488 main peak: 99.69 Area %
  impurity RRT~0.97: 0.14 Area %
  impurity RRT~1.06: 0.11 Area %
  impurity RRT~1.38: 0.02 Area %
[5]
  solubility: > 50000 µg/mL

## CC(C)[C@H](NC(=O)[C@H](Cc1ccc(O)cc1)NCCCCC(=O)[C@H](Cc1ccc(O)cc1)NC(=O)[C@@H]1CCCN1C(=O)[C@H](CCC(=O)O)NC(=O)[C@H](CCC(=O)O)NC(=O)[C@H](Cc1c[nH]c2ccccc12)NC(=O)[C@@H]1CCCN1C(=O)[C@@H](NC(=O)[C@H](CCC(N)=O)NC(=O)c1ccc2c(c1)C(=O)OC21c2ccc(O)cc2Oc2cc(O)ccc21)C(C)C)C(=O)N[C@H](C(=O)N[C@@H](CCCCN)C(=O)N[C@@H](CCCCN)C(=O)N[C@@H](CO)C(=O)N[C@@H](CO)C(=O)NCC(=O)NCC(N)=O)C(C)C [ALM-488, HCl salt]
[6]; TGA
  onset of steep decrease in weight, presumably degradation: 200-250 °C
[6]; heated to 100° C.
  weight loss by TGA: 3.96%
[7]
  water content: 4.08%
[1]; NaOH titration
  pH of resistance to pH change upon base addition (may coincide with pKa of glutamic acid and 5-FAM), first: ~ 4.5
  pH of resistance to pH change upon base addition (may coincide with pKa of glutamic acid and 5-FAM), second: ~ 6.5
[1]; above pH 4, NaOH titration
  precipitation: precipitated
[1]; listed as ALM-488 hydrochloride
  initial pH of mixture: ~ 1.8
[1]; pH >7, NaOH titration
  dissolution: complete dissolution
[1]; pH >7, after dilution by base addition
  peptide concentration in solution: ~ 47 mg/mL
[1]; pH ~4.5 to 5.5, NaOH titration
  appearance: opaque dispersion
[1]; pH ~6.5, NaOH titration
  appearance: clarification of the mixture
[1]; water with naoh, pH <4, NaOH titration, read-out: concentration remaining in solution
  solubility: > 50000 µg/mL
[1]; water, visual assessment, solution pH <2, read-out: solubility
  solubility: > 180000 µg/mL
[1]; ~55 mg/mL in water, start of titration
  solution pH: 1.7
[3]; 50 mg/mL in sterile water for injection
  solution pH: 1.87
[5]; 107 mM tris (pH 7.3)
  Calculated total ALM-488 peptide concentration: 49.2 mg/mL
[5]; 116 mM arginine (pH 7.61)
  Calculated total ALM-488 peptide concentration: 51.7 mg/mL
[5]; l-arginine titration
  solubility: < 50000 µg/mL
[5]; meglumine titration
  solubility: < 50000 µg/mL
[5]; meglumine titration end (printed 107 mm tris)
  solution pH: 7.88
[5]; meglumine titration, pH 7.88
  Calculated total ALM-488 peptide concentration: 49.2 mg/mL
[5]; no L-arginine added
  solution pH: 1.86
[5]; no L-arginine added (pH 1.86)
  Calculated total ALM-488 peptide concentration: 55 mg/mL
[5]; no Tris added
  solution pH: 1.89
[5]; no Tris added (pH 1.89)
  Calculated total ALM-488 peptide concentration: 55 mg/mL
[5]; no meglumine added
  solution pH: 1.86
[5]; no meglumine added (pH 1.86)
  Calculated total ALM-488 peptide concentration: 55 mg/mL
[5]; tromethamine (tris) titration
  solubility: < 50000 µg/mL
[5]; with 107 mM tris
  solution pH: 7.3
[5]; with 116 mM arginine
  solution pH: 7.61
